According to patent US20190338048A1 (published 2019):
Changes are numbered by the printed parent chain. Like-named read-outs stand apart in the source and are kept apart here.

Legend:
Experiment in all cases: SPR
Recombinant human IL-17A = Recombinant human IL-17A (human, UniProt Q16552 20-155, limits assumed)
[1] = target: T1, His-tagged Influenza B Hemagglutinin (B/Brisbane/60/2008) (Influenza B (B/Brisbane/60/2008))
[2] = target: T2, His-tagged recombinant human CD-19 (human, UniProt P15391 20-291, limits assumed)
T2 sequence (looked up): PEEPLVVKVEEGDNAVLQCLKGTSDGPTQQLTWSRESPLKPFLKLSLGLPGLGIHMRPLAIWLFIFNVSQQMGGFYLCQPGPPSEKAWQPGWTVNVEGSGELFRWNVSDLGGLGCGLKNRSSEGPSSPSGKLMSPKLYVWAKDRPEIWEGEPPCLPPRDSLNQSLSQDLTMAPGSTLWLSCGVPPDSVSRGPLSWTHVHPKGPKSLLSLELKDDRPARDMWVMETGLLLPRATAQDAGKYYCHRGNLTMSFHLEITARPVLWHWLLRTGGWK

[3] = target: T2, His-tagged recombinant human CD-19; remark: listed apart in the source
[4] = target: T1, His-tagged Influenza B Hemagglutinin …; remark: listed apart in the source

Sequence of Recombinant human IL-17A (Q16552 20-155 limits assumed): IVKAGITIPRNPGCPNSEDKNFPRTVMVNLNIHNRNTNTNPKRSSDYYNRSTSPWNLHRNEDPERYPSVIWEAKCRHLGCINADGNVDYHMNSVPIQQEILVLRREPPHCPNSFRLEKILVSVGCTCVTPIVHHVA

B1: Design 2816 bispecific antibody, System A (CAT-2200 H1/L1 & Pertuzumab H2/L2) (bispecific antibody)
chain 1: not shown
chain 2: NFMLTQPHSVSESPGKTVTISCTRSSGSLANYYVQWYQQRPGSSPTIVIFANNQRPSGVPDRFSGSIDSSSNSASLTISGLKTEDEADYYCQTYDPYSVVFGGGTKLTVLGQPKAAPSVTLFPPSSEELQANKATLVCLISDFYPGAVTVAWKADSSPVKAGVETTTPSKQSNNKYAASSYLELTPEQWKSHRSYSCQVTHEGSTVEKTVAPTECS
chain 3: not shown
chain 4: DIQMTQSPSSLSASVGDRVTITCKASQDVSIGVAWYQQKPGKAPKLLIYSASYRYTGVPSRFSGSGSGTDFTLTISSLQPEDFATYYCQQYYIYPYTFGQGTKVEIKRTVAAPSVFIFPPSDERLKSGTASVVCLLNNFYPREAKVQWKVDNALQSGNSKESVTEQDSKDSTYSLSSRLTLSKADYEKHKVYACEVTHQGLSSPVTKSFNRGEC
B1 was tested, and the Kd (Recombinant human IL-17A) was 510 pM.

B2: Design 4320 bispecific antibody, System C (CR8071 H1/L1 & SGN-CD19a H2/L2) (bispecific antibody)
chain 1: QVQLVQSGAEVKKPGASVRVSCRASGYIFTESGITWVRQAPGQGLEWMGWISGYSGDTKYAQKLQGRVTMTKDTSTTTAYMELRSLRYDDTAVYYCARDVQYSGSYLGAYYFDYWSPGTLVTVSSASTKGPSVFPLAPSSKSTSGGTAALGCKVKDYFPEPVTVSWNSGALTSGVHTGPAVLQSSGLYSLSSVVTVPSSSLGTQTYICNVNHKPSNTKVDKKVEPKSCDKTHTCPPCPAPELLGGPSVFLFPPKPKDTLMISRTPEVTCVVVDVSHEDPEVKFNWYVDGVEVHNAKTKPREEQYNSTYRVVSVLTVLHQDWLNGKEYKCKVSNKALPAPIEKTISKAKGQPREPQVYVYPPSRDELTKNQVSLTCLVKGFYPSDIAVEWESNGQPENNYKTTPPVLDSDGSFALVSKLTVDKSRWQQGNVFSCSVMHEALHNHYTQKSLSLSPG
chain 2: not shown
chain 3: not shown
chain 4: EIVLTQSPATLSLSPGERATLSCSASSSVSYMHWYQQKPGQAPRLLIYDTSKLASGIPARFSGSGSGTDFTLTISSLEPEDFAVYYCFQGSVYPFTFGQGTKLEIKRTVAAPSVFIFPPSDEKLKSGTASVVCALNNFYPREAKVQWKVDNALQSGNSQESVTEQDSKDSTYSLSSRLTLSKADYEKHKVYACEVTHQGLSSPVTKSFNRGEC
B2 gave a Kd [1] of 490 pM and a Kd [2] of 258000 pM.

B3: Design 2816 bispecific antibody, System C (CR8071 H1/L1 & SGN-CD19a H2/L2) (bispecific antibody)
chain 1: B2 chain 1 with K153L, G178F, Q183K
chain 2: not shown
chain 3: not shown
chain 4: B2 chain 4 with K123R, A134L, Q159K
Work on B3 yielded a Kd [3] of 281000 pM and a Kd [4] of 420 pM.
